Measurements taken from IntAct's records for PubMed 16717130.

B1: Serine/threonine-protein kinase PAK 1 (Homo sapiens), Q13153 (parent)
chain: MSNNGLDIQDKPPAPPMRNTSTMIGAGSKDAGTLNHGSKPLPPNPEEKKKKDRFYRSILPGDKTNKKKEKERPEISLPSDFEHTIHVGFDAVTGEFTGMPEQWARLLQTSNITKSEQKKNPQAVLDVLEFYNSKKTSNSQKYMSFTDKSAEDYNSSNALNVKAVSETPAVPPVSEDEDDDDDDATPPPVIAPRPEHTKSVYTRSVIEPLPVTPTRDVATSPISPTENNTTPPDALTRNTEKQKKKPKMSDEEILEKLRSIVSVGDPKKKYTRFEKIGQGASGTVYTAMDVATGQEVAIKQMNLQQQPKKELIINEILVMRENKNPNIVNYLDSYLVGDELWVVMEYLAGGSLTDVVTETCMDEGQIAAVCRECLQALEFLHSNQVIHRDIKSDNILLGMDGSVKLTDFGFCAQITPEQSKRSTMVGTPYWMAPEVVTRKAYGPKVDIWSLGIMAIEMIEGEPPYLNENPLRALYLIATNGTPELQNPEKLSAIFRDFLNRCLEMDVEKRGSAKELLQHQFLKIAKPLSSLTPLIAAAKEATKNNH

Variants of: B1
Conditions: with paxi_chick PXN

Row | effect of a mutation on the interaction | Variant
1 | increasing interaction | L107F
2 | decreasing interaction | K299A
